Reference: patent US20090214535A1 (Chugai, published 2009)
Read-outs that look alike come from different tables or passages of the source.

Key:
Experiment in all cases: cell-based or functional assay
[1] = biological target: monkey Mpl (on BaF3-monkey Mpl cells) (monkey)
[2] = biological target: T1, human Mpl (on BaF3-human Mpl cells) (human, UniProt P40238 26-635)
T1 sequence (looked up): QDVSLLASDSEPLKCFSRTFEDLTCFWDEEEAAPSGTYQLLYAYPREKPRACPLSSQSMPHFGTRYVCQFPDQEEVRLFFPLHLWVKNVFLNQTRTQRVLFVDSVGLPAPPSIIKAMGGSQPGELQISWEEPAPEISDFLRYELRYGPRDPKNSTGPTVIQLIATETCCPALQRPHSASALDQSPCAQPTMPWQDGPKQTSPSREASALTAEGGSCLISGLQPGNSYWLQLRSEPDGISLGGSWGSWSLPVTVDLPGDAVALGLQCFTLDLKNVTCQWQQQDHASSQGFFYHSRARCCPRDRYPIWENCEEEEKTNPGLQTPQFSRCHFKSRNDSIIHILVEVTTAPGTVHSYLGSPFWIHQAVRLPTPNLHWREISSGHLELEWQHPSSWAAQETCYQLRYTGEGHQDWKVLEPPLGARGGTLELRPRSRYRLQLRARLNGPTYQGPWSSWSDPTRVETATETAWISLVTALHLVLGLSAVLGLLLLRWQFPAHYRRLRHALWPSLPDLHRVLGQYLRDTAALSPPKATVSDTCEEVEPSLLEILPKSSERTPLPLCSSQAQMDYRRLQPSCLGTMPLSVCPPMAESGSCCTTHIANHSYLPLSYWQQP

[3] = biological target: monkey Mpl (on BaF3-monkey Mpl cells) (monkey); remark: listed apart in the source
[4] = biological target: T1, human Mpl (on BaF3-human Mpl cells); remark: listed apart in the source
[5] = biological target: monkey Mpl (on BaF3-monkey Mpl cells) (monkey); remark: listed apart in the source
[6] = biological target: T1, human Mpl (on BaF3-human Mpl cells); remark: listed apart in the source
[7] = biological target: Mpl on the BaF3 cells of FIG. 42 (human or monkey not stated)

B1: humanized anti-human Mpl antibody hVB22B u2-wz4 sc(Fv)2 (bulk, before separation of the conformational isomers) (scFv)
chain: QVQLVQSGPEVKKPGASVKVSCKASGYTFTNSWMNWVRQRPGKGLEWIGRIYPGDGETIYNGKFRVRVTITADESTSTAYMQLSSLRSEDTAVYYCARGYDDYSFAYWGQGTTVTVSSGGGGSGGGGSGGGGSDIVMTQSPLSLPVTPGEPASISCRSSKSLLHSNGNTYLYWFLQKPGQSPQLLIYRMSNLASGVPDRFSGSGSGTDFTLKISRVEAEDVGVYYCMQHIEYPFTFGQGTKLEIKGGGGSGGGGSGGGGSQVQLVQSGPEVKKPGASVKVSCKASGYTFTNSWMNWVRQRPGKGLEWIGRIYPGDGETIYNGKFRVRVTITADESTSTAYMQLSSLRSEDTAVYYCARGYDDYSFAYWGQGTTVTVSSGGGGSGGGGSGGGGSDIVMTQSPLSLPVTPGEPASISCRSSKSLLHSNGNTYLYWFLQKPGQSPQLLIYRMSNLASGVPDRFSGSGSGTDFTLKISRVEAEDVGVYYCMQHIEYPFTFGQGTKLEIK
With B1 as the binder, how does the “EC50 (read off the curve) [B) BaF-monkey Mpl]” value [1] read?
Its value is ~40 pM.

What about the “EC50 (read off the curve) [A) BaF-human Mpl]” value [2] of the same binder?
Its value is ~40 pM.

What about the “EC50 (read off the curve) [B) BaF-monkey Mpl]” value [3] of the same binder?
The value was ~20 pM.

What about the “EC50 (read off the curve) [A) BaF-human Mpl]” value [4] of the same binder?
Its value is ~60 pM.

B2: hVB22B u2-wz4 sc(Fv)2 peak 2 (single chain diabody-type conformational isomer) (scFv)
chain: QVQLVQSGPEVKKPGASVKVSCKASGYTFTNSWMNWVRQRPGKGLEWIGRIYPGDGETIYNGKFRVRVTITADESTSTAYMQLSSLRSEDTAVYYCARGYDDYSFAYWGQGTTVTVSSGGGGSGGGGSGGGGSDIVMTQSPLSLPVTPGEPASISCRSSKSLLHSNGNTYLYWFLQKPGQSPQLLIYRMSNLASGVPDRFSGSGSGTDFTLKISRVEAEDVGVYYCMQHIEYPFTFGQGTKLEIKGGGGSGGGGSGGGGSQVQLVQSGPEVKKPGASVKVSCKASGYTFTNSWMNWVRQRPGKGLEWIGRIYPGDGETIYNGKFRVRVTITADESTSTAYMQLSSLRSEDTAVYYCARGYDDYSFAYWGQGTTVTVSSGGGGSGGGGSGGGGSDIVMTQSPLSLPVTPGEPASISCRSSKSLLHSNGNTYLYWFLQKPGQSPQLLIYRMSNLASGVPDRFSGSGSGTDFTLKISRVEAEDVGVYYCMQHIEYPFTFGQGTKLEIK
Which “EC50 (read off the curve) [B) BaF-monkey Mpl]” value [1] does the source give for B2 here?
The value was ~30 pM.

And the “EC50 (read off the curve) [A) BaF-human Mpl]” value [2]?
Its value is ~40 pM.

What about the “EC50 (read off the curve) [B) BaF-monkey Mpl]” value [3] of the same binder?
The value was ~20 pM.

And the “EC50 (read off the curve) [A) BaF-human Mpl]” value [4]?
Its value is ~50 pM.

B3: hVB22B u2-wz4 (v1) sc(Fv)2 (scFv)
chain: QVQLVQSGPEVKKPGASVKVSCKASGYTFTNSWMNWVRERPGKGLEWIGRIYPGDGETIYNGKFRVRVTITADESTSTAYMQLSSLRSEDTAVYYCARGYDDYSFAYWGQGTTVTVSSGGGGSGGGGSGGGGSDIVMTQSPLSLPVTPGEPASISCRSSKSLLHSNGNTYLYWFLEKPGQSPQLLIYRMSNLASGVPDRFSGSGSGTDFTLKISRVEAEDVGVYYCMQHIEYPFTFGQGTKLEIKGGGGSGGGGSGGGGSQVQLVQSGPEVKKPGASVKVSCKASGYTFTNSWMNWVRKRPGKGLEWIGRIYPGDGETIYNGKFRVRVTITADESTSTAYMQLSSLRSEDTAVYYCARGYDDYSFAYWGQGTTVTVSSGGGGSGGGGSGGGGSDIVMTQSPLSLPVTPGEPASISCRSSKSLLHSNGNTYLYWFLKKPGQSPQLLIYRMSNLASGVPDRFSGSGSGTDFTLKISRVEAEDVGVYYCMQHIEYPFTFGQGTKLEIK
How did the “EC50 (read off the curve) [B) BaF-monkey Mpl]” value [3] turn out when B3 was run?
Its value is ~40 pM.

And the “EC50 (read off the curve) [A) BaF-human Mpl]” value [4]?
Its value is ~40 pM.

B4: hVB22B u2-wz4 (v3) sc(Fv)2 (scFv)
chain: QVQLVQSGPEVKKPGASVKVSCKASGYTFTNSWMNWVRERPGKGLEWIGRIYPGDGETIYNGKFRVRVTITADESTSTAYMQLSSLRSEDTAVYYCARGYDDYSFAYWGQGTTVTVSSGGGGSGGGGSGGGGSDIVMTQSPLSLPVTPGEPASISCRSSKSLLHSNGNTYLYWFLKKPGQSPQLLIYRMSNLASGVPDRFSGSGSGTDFTLKISRVEAEDVGVYYCMQHIEYPFTFGQGTKLEIKGGGGSGGGGSGGGGSQVQLVQSGPEVKKPGASVKVSCKASGYTFTNSWMNWVRKRPGKGLEWIGRIYPGDGETIYNGKFRVRVTITADESTSTAYMQLSSLRSEDTAVYYCARGYDDYSFAYWGQGTTVTVSSGGGGSGGGGSGGGGSDIVMTQSPLSLPVTPGEPASISCRSSKSLLHSNGNTYLYWFLEKPGQSPQLLIYRMSNLASGVPDRFSGSGSGTDFTLKISRVEAEDVGVYYCMQHIEYPFTFGQGTKLEIK
With B4 as the binder, how does the “EC50 (read off the curve) [A) BaF-human Mpl]” value [4] read?
Its value is ~100 pM.

B5: VB22B sc(Fv)2 peak 2 (single chain diabody-type conformational isomer) (scFv)
chain: QVQLQQSGPELVKPGASVKISCKASGYAFTNSWMNWVKQRPGKGLEWIGRIYPGDGETIYNGKFRVKATLTADKSSSTAYMDISSLTSEDSAVYFCARGYDDYSFAYWGQGTLVTVSAGGGGSGGGGSGGGGSDIVMTQAAPSIPVTPGESVSISCRSSKSLLHSNGNTYLYWFLQRPGQSPQLLIYRMSNLASGVPDRFSGSGSGTAFTLRISRVEAEDVGVYYCMQHIEYPFTFGSGTKLEIKGGGGSGGGGSGGGGSQVQLQQSGPELVKPGASVKISCKASGYAFTNSWMNWVKQRPGKGLEWIGRIYPGDGETIYNGKFRVKATLTADKSSSTAYMDISSLTSEDSAVYFCARGYDDYSFAYWGQGTLVTVSAGGGGSGGGGSGGGGSDIVMTQAAPSIPVTPGESVSISCRSSKSLLHSNGNTYLYWFLQRPGQSPQLLIYRMSNLASGVPDRFSGSGSGTAFTLRISRVEAEDVGVYYCMQHIEYPFTFGSGTKLEIK
How did the “EC50 (read off the curve) [B) BaF-monkey Mpl]” value [5] turn out when B5 was run?
Its value is ~20 pM.

What about the “EC50 (read off the curve) [A) BaF-human Mpl]” value [6] of the same binder?
The value was ~8 pM.

What about the “EC50 (read off the curve)” value [7] of the same binder?
Its value is ~0.6 ng/mL.

B6: mouse anti-human Mpl antibody mVB22B sc(Fv)2 (before separation of the conformational isomers) (scFv)
chain: QVQLQQSGPELVKPGASVKISCKASGYAFTNSWMNWVKQRPGKGLEWIGRIYPGDGETIYNGKFRVKATLTADKSSSTAYMDISSLTSEDSAVYFCARGYDDYSFAYWGQGTLVTVSAGGGGSGGGGSGGGGSDIVMTQAAPSIPVTPGESVSISCRSSKSLLHSNGNTYLYWFLQRPGQSPQLLIYRMSNLASGVPDRFSGSGSGTAFTLRISRVEAEDVGVYYCMQHIEYPFTFGSGTKLEIKGGGGSGGGGSGGGGSQVQLQQSGPELVKPGASVKISCKASGYAFTNSWMNWVKQRPGKGLEWIGRIYPGDGETIYNGKFRVKATLTADKSSSTAYMDISSLTSEDSAVYFCARGYDDYSFAYWGQGTLVTVSAGGGGSGGGGSGGGGSDIVMTQAAPSIPVTPGESVSISCRSSKSLLHSNGNTYLYWFLQRPGQSPQLLIYRMSNLASGVPDRFSGSGSGTAFTLRISRVEAEDVGVYYCMQHIEYPFTFGSGTKLEIK
With B6 as the binder, how does the “EC50 (read off the curve) [B) BaF-monkey Mpl]” value [5] read?
The value was ~30 pM.

And the “EC50 (read off the curve) [A) BaF-human Mpl]” value [6]?
The value was ~10 pM.
